# From patent US20250002577A1 (ONCORESPONSE, published 2025)
# B1: B21H1-15 (antibody, human IgG1, kappa)
# heavy: not shown
# light: DIQMTQTPSTVEASVGGTVTITCQASGNIYSFLAWYQQKPGQPPKLLIYTASNLETGVPSRFSGSGSGTEYTLTISGLQSDDAATYYCLGGLYSSDVSYAFGGGTEVVVKRTVAAPSVFIFPPSDEQLKSGTASVVCLLNNFYPREAKVQWKVDNALQSGNSQESVTEQDSKDSTYSLSSTLTLSKADYEKHKVYACEVTHQGLSSPVTKSFNRGEC
# notes: humanized IgG1/kappa, VH1+VL5
# B2: B21H1-12 (antibody, human IgG1, kappa)
# heavy: not shown
# light: DIQMTQSPSSLSASVGDRVTITCQASGNIYSFLAWYQQKPGKVPKLLIYTASNLETGVPSRFSGSGSGTDYTLTISSLQSEDAATYYCLGGLYSSDVSYAFGGGTKVVIKRTVAAPSVFIFPPSDEQLKSGTASVVCLLNNFYPREAKVQWKVDNALQSGNSQESVTEQDSKDSTYSLSSTLTLSKADYEKHKVYACEVTHQGLSSPVTKSFNRGEC
# notes: humanized IgG1/kappa, VH1+VL2
# B3: B21H1-42 (antibody, human IgG1, kappa)
# heavy: not shown
# light: B2 light
# notes: humanized IgG1/kappa, VH4+VL2
# Tests used:
# [1] = molecular target: T1, human LILRB1 on cells (human, UniProt Q8NHL6 24-650); assay: flow cytometry, HEK293-6E transfectants
# T1 construct: whole, on cells; also called hLILRB1; LILRB1-expressing 721.221 cells
# T1 sequence (Q8NHL6 24-650): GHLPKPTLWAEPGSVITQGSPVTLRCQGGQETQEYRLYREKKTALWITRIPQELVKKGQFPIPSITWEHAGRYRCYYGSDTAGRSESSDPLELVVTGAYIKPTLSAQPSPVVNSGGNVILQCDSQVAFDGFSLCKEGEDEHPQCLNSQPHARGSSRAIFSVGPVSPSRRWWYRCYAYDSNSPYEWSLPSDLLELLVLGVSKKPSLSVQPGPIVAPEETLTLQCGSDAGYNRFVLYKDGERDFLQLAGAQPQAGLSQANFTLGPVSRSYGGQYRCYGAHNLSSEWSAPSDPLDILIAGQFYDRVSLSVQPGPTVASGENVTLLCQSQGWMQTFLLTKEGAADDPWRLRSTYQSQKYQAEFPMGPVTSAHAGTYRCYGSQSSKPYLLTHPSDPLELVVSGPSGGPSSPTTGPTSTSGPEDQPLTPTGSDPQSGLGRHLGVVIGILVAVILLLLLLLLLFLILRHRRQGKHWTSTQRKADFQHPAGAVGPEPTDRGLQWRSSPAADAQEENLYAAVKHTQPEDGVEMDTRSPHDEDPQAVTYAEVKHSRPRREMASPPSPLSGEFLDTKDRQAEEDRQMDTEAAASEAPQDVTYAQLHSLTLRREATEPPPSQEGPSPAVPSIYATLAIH
# Description: (§1) To determine that the parent chimera anti LILRB2/1 antibody specifically binds to LILRB2 and LILRB1 and not to other LILRB and LILRA family members, a cross-reactivity assay was performed. Cross-reactivity was assessed by antibody binding to transiently transfected HEK293-6E cells by flow cytometry. Binding was evaluated to HEK293-6E cells transiently transfected with human LILRB-1, -2, -3, -4, and 5 plasmids (Origene, Nos. RC219949, RC217935, RC211228, RC220932, RC206516) or to cells transiently transfected with human LILRA-1, -2, -4, -5, and -6 plasmids (Origene, Nos. RC210808, RC205626, RC220452, RC212310 RC212965). […] At a concentration of 1 μg/mL, no binding of B21A1 or the humanized variants to LILRB-3, -4, or -5 was observed (Table 7). Additionally, no binding to LILRA-1, -2, -4, -5, or -6 was observed, confirming the specificity of B21A1 and its humanized variants to LILRB1 and LILRB2 (Table 8).
# [2] = molecular target: T2, human LILRB2 on cells (human, UniProt Q8N423 22-597); assay: flow cytometry, HEK293-6E transfectants
# T2 construct: whole, on cells; also called hLILRB2; LILRB2-HEK293T
# T2 sequence (Q8N423 22-597): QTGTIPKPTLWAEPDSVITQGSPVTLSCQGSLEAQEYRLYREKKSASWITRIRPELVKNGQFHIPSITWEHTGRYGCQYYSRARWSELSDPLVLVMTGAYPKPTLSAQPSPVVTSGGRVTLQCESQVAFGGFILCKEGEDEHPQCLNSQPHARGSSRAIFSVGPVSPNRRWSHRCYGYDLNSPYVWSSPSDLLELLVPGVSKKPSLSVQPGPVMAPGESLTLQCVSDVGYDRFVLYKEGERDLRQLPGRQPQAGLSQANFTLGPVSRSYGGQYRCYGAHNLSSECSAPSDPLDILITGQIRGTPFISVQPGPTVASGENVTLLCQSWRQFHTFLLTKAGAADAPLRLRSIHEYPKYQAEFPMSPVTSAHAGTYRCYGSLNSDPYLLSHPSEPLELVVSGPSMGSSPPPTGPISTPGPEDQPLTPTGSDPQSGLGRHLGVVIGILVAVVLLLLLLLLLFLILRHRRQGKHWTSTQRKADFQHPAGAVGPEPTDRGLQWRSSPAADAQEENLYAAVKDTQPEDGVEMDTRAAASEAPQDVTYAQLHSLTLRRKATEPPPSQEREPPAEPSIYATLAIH
# Description: as §1
# [3] = molecular target: T3, human LILRB3 on HEK293-6E cells (human, UniProt O75022 24-631); assay: flow cytometry, HEK293-6E transfectants
# T3 construct: whole, on cells; also called hLILRB3
# T3 sequence (O75022 24-631): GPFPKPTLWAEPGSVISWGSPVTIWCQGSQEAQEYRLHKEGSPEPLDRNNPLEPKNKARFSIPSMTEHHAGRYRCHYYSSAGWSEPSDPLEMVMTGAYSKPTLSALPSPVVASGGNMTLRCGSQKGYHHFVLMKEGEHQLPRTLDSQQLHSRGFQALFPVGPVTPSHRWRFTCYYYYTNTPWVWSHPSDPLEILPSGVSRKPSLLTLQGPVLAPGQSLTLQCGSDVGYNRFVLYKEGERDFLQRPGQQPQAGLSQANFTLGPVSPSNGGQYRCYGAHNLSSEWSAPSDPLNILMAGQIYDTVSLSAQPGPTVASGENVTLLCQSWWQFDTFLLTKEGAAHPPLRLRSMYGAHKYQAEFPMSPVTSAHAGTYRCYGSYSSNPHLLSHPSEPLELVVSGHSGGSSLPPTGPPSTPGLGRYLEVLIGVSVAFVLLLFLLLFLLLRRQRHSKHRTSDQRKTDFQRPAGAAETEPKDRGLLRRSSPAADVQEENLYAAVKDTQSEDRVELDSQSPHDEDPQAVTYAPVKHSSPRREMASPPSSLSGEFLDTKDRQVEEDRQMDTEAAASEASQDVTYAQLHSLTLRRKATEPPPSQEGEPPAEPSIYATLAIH
# Description: as §1
# [4] = molecular target: T4, human LILRB4 on HEK293-6E cells (human, UniProt Q8NHJ6 22-448); assay: flow cytometry, HEK293-6E transfectants
# T4 construct: whole, on cells; also called hLILRB4
# Description: as §1
# [5] = molecular target: T5, human LILRB5 on HEK293-6E cells (human, UniProt O75023 24-590); assay: flow cytometry, HEK293-6E transfectants
# T5 construct: whole, on cells; also called hLILRB5
# T5 sequence (O75023 24-590): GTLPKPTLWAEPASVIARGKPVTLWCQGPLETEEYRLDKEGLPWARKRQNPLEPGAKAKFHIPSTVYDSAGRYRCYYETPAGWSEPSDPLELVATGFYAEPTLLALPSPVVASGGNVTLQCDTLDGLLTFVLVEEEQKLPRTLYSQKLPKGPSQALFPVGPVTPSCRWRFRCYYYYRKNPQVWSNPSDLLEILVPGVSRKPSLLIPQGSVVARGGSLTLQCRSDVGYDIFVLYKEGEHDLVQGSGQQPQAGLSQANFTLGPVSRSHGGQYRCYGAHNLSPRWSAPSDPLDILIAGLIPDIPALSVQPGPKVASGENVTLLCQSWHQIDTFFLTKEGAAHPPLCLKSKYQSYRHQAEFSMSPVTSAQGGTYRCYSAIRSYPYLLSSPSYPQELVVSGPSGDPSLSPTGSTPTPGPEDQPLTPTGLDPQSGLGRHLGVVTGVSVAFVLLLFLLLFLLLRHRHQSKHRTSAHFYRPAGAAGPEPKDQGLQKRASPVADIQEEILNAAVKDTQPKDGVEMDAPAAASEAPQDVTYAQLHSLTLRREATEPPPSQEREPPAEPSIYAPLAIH
# Description: as §1
# [6] = molecular target: T6, human LILRA1 on HEK293-6E cells (human, UniProt O75019 17-489); assay: flow cytometry, HEK293-6E transfectants
# T6 construct: whole, on cells; also called hLILRA1
# T6 sequence (O75019 17-489): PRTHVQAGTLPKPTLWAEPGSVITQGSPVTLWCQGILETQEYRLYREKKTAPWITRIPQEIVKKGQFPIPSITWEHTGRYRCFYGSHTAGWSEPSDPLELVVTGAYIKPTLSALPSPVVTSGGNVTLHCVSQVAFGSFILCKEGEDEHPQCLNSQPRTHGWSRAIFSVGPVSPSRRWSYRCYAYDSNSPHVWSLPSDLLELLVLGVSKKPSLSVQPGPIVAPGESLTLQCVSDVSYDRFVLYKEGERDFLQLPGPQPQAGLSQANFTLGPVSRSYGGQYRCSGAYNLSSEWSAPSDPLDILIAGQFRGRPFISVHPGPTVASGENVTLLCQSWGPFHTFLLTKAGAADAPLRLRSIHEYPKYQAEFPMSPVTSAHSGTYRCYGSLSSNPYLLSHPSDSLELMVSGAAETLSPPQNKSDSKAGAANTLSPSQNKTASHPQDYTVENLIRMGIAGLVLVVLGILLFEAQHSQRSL
# Description: as §1
# [7] = molecular target: T7, human LILRA2 on HEK293-6E cells (human, UniProt Q8N149 24-483); assay: flow cytometry, HEK293-6E transfectants
# T7 construct: whole, on cells; also called hLILRA2
# T7 sequence (Q8N149 24-483): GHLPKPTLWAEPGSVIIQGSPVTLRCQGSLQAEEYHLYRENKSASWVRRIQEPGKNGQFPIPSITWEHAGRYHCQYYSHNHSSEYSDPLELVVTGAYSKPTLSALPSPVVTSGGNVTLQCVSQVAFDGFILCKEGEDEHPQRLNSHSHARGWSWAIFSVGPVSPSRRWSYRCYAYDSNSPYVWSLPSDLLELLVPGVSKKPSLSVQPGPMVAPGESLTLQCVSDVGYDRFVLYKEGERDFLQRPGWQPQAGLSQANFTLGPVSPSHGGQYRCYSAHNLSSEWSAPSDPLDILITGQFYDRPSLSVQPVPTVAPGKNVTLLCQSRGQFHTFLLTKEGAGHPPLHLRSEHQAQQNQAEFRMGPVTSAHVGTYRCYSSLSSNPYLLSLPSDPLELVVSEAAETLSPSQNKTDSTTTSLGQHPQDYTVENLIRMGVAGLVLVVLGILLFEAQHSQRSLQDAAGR
# Description: as §1
# [8] = molecular target: T8, human LILRA4 on HEK293-6E cells (human, UniProt P59901 24-499); assay: flow cytometry, HEK293-6E transfectants
# T8 construct: whole, on cells; also called hLILRA4
# T8 sequence (P59901 24-499): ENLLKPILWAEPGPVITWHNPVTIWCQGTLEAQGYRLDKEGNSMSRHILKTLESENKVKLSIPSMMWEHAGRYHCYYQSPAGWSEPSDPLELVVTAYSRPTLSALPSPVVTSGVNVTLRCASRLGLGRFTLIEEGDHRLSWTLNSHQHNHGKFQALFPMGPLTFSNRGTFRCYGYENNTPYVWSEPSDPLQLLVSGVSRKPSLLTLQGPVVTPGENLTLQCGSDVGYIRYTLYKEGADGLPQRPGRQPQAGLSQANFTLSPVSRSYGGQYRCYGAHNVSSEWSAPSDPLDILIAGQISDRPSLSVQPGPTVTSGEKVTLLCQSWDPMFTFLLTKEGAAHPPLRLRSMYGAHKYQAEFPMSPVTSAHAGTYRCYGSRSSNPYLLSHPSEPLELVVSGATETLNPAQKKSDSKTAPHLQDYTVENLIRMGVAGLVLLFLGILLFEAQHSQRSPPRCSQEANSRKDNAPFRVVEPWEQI
# Description: as §1
# [9] = molecular target: T9, human LILRA5 on HEK293-6E cells (human, UniProt A6NI73 42-299); assay: flow cytometry, HEK293-6E transfectants
# T9 construct: whole, on cells; also called hLILRA5
# T9 sequence (A6NI73 42-299): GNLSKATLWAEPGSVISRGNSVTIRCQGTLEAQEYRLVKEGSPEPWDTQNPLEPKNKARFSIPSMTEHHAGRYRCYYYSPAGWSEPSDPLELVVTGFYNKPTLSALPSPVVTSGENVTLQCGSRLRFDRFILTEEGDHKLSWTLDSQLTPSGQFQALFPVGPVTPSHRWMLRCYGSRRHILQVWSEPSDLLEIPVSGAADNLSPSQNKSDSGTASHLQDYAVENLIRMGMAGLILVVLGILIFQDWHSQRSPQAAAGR
# Description: as §1
# [10] = molecular target: T10, human LILRA6 on HEK293-6E cells (human, UniProt Q6PI73 24-481); assay: flow cytometry, HEK293-6E transfectants
# T10 construct: whole, on cells; also called hLILRA6
# T10 sequence (Q6PI73 24-481): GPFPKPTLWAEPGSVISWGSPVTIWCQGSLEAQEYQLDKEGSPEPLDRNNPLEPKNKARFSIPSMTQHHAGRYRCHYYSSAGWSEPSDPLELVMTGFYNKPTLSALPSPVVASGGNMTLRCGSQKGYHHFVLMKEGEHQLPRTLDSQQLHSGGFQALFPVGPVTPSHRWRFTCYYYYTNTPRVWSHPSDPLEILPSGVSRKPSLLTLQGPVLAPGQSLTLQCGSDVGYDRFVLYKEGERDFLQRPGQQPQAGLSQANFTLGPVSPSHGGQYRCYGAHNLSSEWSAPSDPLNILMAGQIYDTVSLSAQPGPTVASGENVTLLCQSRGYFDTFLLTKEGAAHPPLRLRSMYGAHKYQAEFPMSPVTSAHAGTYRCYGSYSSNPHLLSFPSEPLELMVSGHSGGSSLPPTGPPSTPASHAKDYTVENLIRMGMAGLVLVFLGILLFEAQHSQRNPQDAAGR
# Description: as §1
# [11] = molecular target: T11, recombinant human LILRB1-His (human, UniProt Q8NHL6 24-458); assay: MSD ELISA, coated antigen, purified IgG1
# T11 construct: Bought protein; also called LILRB1 protein
# Description: (§2) Recombinant human and cynomolgus LILRB1 proteins (R&D Systems, No. 8989-T2-050; ACROBiosystems, No. CDJ-C52H3) and recombinant human and cynomolgus LILRB2 proteins (ACROBiosystems, No. LI2-H5220; No. L12-C52H3) were diluted in PBS to 4 μg/mL and added to a multi-array 384-well high-binding plates (MSD, No. L21XA4) at 10 μL/well and incubated at 4° C. overnight. The plates were washed several times with Wash Buffer (0.05% Tween® 20 in PBS), using a microplate washer and then blocked with 70 μL/well of 5% BSA in PBS for 1 hour (h) at room temperature (RT) with shaking at 700 rpm. After blocking, 20 μL/well of anti-LILRB2/LILRB1 antibodies or isotype control were added to the plates, and the plates were sealed and incubated for 2 h at RT with shaking at 700 rpm. After primary antibody binding, plates were washed five times with 70 μL/well of Wash Buffer (0.05% Tween® 20 in PBS) using a microplate washer. Secondary detection antibody (SULFO-TAG™-labeled goat anti-human IgG antibody (MSD, No. R32AJ-1)) was diluted to 4 μg/mL in assay diluent (1% BSA in PBS) and 10 μL/well was added to plates and incubated at RT protected from light for 1 h, with shaking at 700 rpm. Following incubation, plates were washed five times with Wash Buffer, using a microplate washer. After removal of the final wash, 35 μL/well of MSD Gold Read Buffer B (MSD, No. R60AM-4) was added to all wells using a Multidrop combo washer/dispenser, and plates were read using MESO Sector 600MM instrument (MSD) within 5 minutes (min) after addition of Read Buffer. Signals as counts per minute (cpm) were recorded. EC₅₀ values were calculated using GraphPad Prism based on log concentration of the primary antibodies versus cpm values.
# [12] = molecular target: T12, recombinant human LILRB2-His (human, UniProt Q8N423 22-461, limits assumed); assay: MSD ELISA, coated antigen, purified IgG1
# T12 construct: Bought protein; also called LILRB2 protein
# T12 sequence (Q8N423 22-461 limits assumed): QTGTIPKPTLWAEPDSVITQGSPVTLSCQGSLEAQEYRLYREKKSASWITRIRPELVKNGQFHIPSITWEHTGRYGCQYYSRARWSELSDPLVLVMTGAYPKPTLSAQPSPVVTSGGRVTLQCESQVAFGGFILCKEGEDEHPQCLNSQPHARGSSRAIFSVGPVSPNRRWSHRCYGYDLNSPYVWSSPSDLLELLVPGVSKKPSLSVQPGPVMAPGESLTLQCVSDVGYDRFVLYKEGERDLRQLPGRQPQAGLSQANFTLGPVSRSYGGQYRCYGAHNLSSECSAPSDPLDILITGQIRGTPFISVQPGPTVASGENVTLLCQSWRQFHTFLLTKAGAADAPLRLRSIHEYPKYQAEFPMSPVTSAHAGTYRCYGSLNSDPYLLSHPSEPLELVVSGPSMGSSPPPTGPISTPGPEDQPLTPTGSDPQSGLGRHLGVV
# Description: as §2
# [13] = molecular target: T2, human LILRB2 on cells; assay: flow cytometry, LILRB2-HEK293T cells, AF647-labelled antibody
# Description: (§3) While LILRB2 expression is mostly restricted to myeloid cells, LILRB1 has a broader expression on immune cell subsets, including B cells, T cells and NK cells.
# (§4) Frozen cells were removed from storage in vapor phase liquid nitrogen and thawed by gentle swirling in a water bath at 37° C., then resuspended in DMEM media with 10% FBS. Cells were placed in a 15 mL conical tube and centrifuged at 300×g for 5 min, then supernatant was removed. Cells were resuspended in DMEM+10% FBS at a cell density of 2×10⁵ cells/mL in a T75 flask for culturing, and incubated at 37° C., 5% CO₂ for 3 days before passaging. Cells were passaged when the cell density reached 1×10⁶ cell/mL. On the day of the assay, cells were centrifuged, then supernatant was removed. Cells were resuspended in Blocking Buffer B (FACS Buffer containing 10% FBS and 0.5 mg/mL human IgG1 (Athens Research, No. 16-16-090707-1M)+0.05% NaN₃, 5% (w/v)) in a 15 mL conical tube, then incubated at 4° C. for 30 min. […] Cells were incubated with antibodies at 4° C. for 1 h. Cells were washed twice in FACS Buffer (PBS containing 2 mM EDTA+1% FBS+0.05% NaN₃) and then stained with for 10 min with Zombie Violet™ fixable viability dye (BioLegend, No. 423114) at RT, washed with FACS Buffer and resuspend in 75 μL of FACS Buffer for acquisition on a BD FACSymphony™ or BD FACSCanto™ II flow cytometer (BD Biosciences), as described in Example 6.
# [14] = molecular target: T1, human LILRB1 on cells; assay: flow cytometry, 721.221 cells, AF647-labelled antibody
# Description: as §3, §4
Binder,MFI [1],MFI [2],MFI [3],binding result [3],MFI [4],binding result [4],MFI [5],binding result [5],MFI [6],binding result [6],MFI [7],binding result [7],MFI [8],binding result [8],MFI [9],binding result [9],MFI [10],binding result [10],EC50 [11],EC50 [12],further results
B1,1140 MFI,5700 MFI,98.7 MFI,no binding (tested: 1 µg/mL),29.9 MFI,no binding (tested: 1 µg/mL),93.8 MFI,no binding (tested: 1 µg/mL),290 MFI,no binding (tested: 1 µg/mL),28.9 MFI,no binding (tested: 1 µg/mL),136 MFI,no binding (tested: 1 µg/mL),77.8 MFI,no binding (tested: 1 µg/mL),147 MFI,no binding (tested: 1 µg/mL),5.63 ng/mL,21.6 ng/mL,EC50 [13]: 0.96 ng/mL
B2,963 MFI,6210 MFI,82.2 MFI,no binding (tested: 1 µg/mL),27.3 MFI,no binding (tested: 1 µg/mL),87.8 MFI,no binding (tested: 1 µg/mL),276 MFI,no binding (tested: 1 µg/mL),26.6 MFI,no binding (tested: 1 µg/mL),112 MFI,no binding (tested: 1 µg/mL),72.8 MFI,no binding (tested: 1 µg/mL),151 MFI,no binding (tested: 1 µg/mL),6.14 ng/mL,17.4 ng/mL,EC50 [14]: 41.7 ng/mL; EC50 [13]: 1.02 ng/mL
B3,1160 MFI,5630 MFI,97 MFI,no binding (tested: 1 µg/mL),30.9 MFI,no binding (tested: 1 µg/mL),92.8 MFI,no binding (tested: 1 µg/mL),345 MFI,no binding (tested: 1 µg/mL),27.1 MFI,no binding (tested: 1 µg/mL),134 MFI,no binding (tested: 1 µg/mL),74.6 MFI,no binding (tested: 1 µg/mL),147 MFI,no binding (tested: 1 µg/mL),9.19 ng/mL,28.4 ng/mL,EC50 [13]: 1.25 ng/mL
